The results in this text go back to patent US20180194839A1 (Novartis, published 2018).

Assay [1] has as its target T1, human IL-17A (construct not stated) (human, UniProt Q16552 24-155, limits assumed).
T1 construct: also called huIL-17A; human IL-17A biotin
T1 sequence: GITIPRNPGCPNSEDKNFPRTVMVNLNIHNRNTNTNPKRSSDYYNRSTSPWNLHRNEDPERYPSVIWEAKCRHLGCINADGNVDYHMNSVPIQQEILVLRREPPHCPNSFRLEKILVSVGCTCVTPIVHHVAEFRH
The experiment in a line: competition ELISA: biotinylated huIL-17A pre-incubated with antibody, binding to coated huIL-17RA. On the technique in general: In an ELISA, binding on a coated surface is turned into a signal by an enzyme label.

The target of assay [2] is T2, recombinant mouse IL-6 (R&D Systems Cat#406-ML-010/CF) (mouse, UniProt P08505 25-211).
T2 construct: coated at 0.5 µg/ml; also called mIL-6
T2 sequence (looked up): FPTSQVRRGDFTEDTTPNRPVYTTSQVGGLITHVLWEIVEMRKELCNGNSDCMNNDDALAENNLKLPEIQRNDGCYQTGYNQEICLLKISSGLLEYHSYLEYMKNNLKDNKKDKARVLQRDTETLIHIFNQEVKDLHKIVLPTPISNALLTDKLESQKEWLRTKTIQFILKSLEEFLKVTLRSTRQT
The experiment in a line: ELISA, coated cytokine.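 Further: antibodies incubated 3 h at room temperature on cytokine-coated plates, binding read out with alkaline phosphatase-conjugated anti-species IgG secondary antibodies.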

In assay [3] the target is T3, recombinant mouse IL-18 (MBL Cat#B004-5) (mouse, UniProt P70380 36-192).
T3 construct: also called mIL-18
T3 sequence (looked up): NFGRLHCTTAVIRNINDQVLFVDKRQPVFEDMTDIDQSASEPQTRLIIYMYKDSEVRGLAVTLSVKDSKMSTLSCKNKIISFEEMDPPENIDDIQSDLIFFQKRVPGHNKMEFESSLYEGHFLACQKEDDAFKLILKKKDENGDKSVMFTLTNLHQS
The experiment in a line: ELISA, coated cytokine.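 Further: antibodies incubated 3 h at room temperature on cytokine-coated plates, binding read out with alkaline phosphatase-conjugated anti-species IgG secondary antibodies.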

Assay [4] has as its target T4, recombinant human IFNγ (Roche) (human, UniProt P01579 24-166, limits assumed).
T4 construct: also called huIFNγ
T4 sequence (looked up): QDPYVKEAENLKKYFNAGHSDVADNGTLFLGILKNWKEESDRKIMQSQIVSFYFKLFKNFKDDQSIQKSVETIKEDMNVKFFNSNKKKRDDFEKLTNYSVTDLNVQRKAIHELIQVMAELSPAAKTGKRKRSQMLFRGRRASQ
The experiment in a line: ELISA, coated cytokine.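 Further: antibodies incubated 3 h at room temperature on cytokine-coated plates, binding read out with alkaline phosphatase-conjugated anti-species IgG secondary antibodies.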

For assay [5], the target named is T5, recombinant human IL-13 (Novartis) (human, UniProt P35225 35-146, limits assumed).
T5 construct: also called huIL-13
T5 sequence (P35225 35-146 limits assumed): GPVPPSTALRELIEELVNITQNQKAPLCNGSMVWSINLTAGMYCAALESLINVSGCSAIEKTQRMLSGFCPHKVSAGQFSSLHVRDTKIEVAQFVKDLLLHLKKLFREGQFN
The experiment in a line: ELISA, coated cytokine.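 Further: antibodies incubated 3 h at room temperature on cytokine-coated plates, binding read out with alkaline phosphatase-conjugated anti-species IgG secondary antibodies.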

Assay [6] deals with T6, recombinant human TGFβ2 (Novartis) (human, UniProt P61812 303-414).
T6 construct: also called huTGFβ2
T6 sequence (looked up): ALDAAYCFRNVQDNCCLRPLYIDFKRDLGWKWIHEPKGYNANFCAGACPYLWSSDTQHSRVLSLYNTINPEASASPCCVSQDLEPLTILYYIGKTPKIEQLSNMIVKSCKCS
The experiment in a line: ELISA, coated cytokine.

The target in assay [7] is T7, recombinant mouse IL-2 (R&D Systems 402-ML-020/CF) (mouse, UniProt P04351 21-169).
T7 construct: also called mIL-2
T7 sequence (looked up): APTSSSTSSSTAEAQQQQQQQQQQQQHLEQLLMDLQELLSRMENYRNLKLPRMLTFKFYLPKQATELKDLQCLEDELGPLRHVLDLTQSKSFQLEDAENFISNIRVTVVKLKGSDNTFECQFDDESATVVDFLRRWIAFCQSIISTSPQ
The experiment in a line: ELISA, coated cytokine.

The target of assay [8] is T8, recombinant mouse TNFα (R&D Systems Cat#410-MT) (mouse, UniProt P06804 80-235).
T8 construct: coated at 0.5 µg/ml; also called mTNFα
T8 sequence (looked up): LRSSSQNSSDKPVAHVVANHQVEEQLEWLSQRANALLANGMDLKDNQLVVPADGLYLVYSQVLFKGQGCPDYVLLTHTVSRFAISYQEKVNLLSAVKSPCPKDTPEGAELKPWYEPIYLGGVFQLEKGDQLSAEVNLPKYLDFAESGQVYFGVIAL
The experiment in a line: ELISA, coated cytokine.

The target in assay [9] is T9, recombinant human IL-17D (R&D Systems Cat#1504IL/CF) (human, UniProt Q8TAD2 18-202, limits assumed).
T9 construct: also called huIL-17D; hu IL-17D
T9 sequence (looked up): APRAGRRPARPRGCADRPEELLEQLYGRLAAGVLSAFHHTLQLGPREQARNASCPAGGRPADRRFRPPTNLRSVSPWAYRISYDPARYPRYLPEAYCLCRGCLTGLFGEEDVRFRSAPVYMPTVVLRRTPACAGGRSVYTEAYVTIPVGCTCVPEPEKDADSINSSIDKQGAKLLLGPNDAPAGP
The experiment in a line: ELISA, coated antigen.

In assay [10] the target is T10, recombinant human IL-17E (R&D Systems Cat#1258-IL/CF) (human, UniProt Q9H293 33-177).
T10 construct: also called huIL-17E; hu IL-17E
T10 sequence (looked up): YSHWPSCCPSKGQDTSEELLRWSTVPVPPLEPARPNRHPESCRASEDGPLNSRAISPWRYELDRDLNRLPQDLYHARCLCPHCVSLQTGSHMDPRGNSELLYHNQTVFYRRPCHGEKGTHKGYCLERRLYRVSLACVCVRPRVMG
The experiment in a line: ELISA, coated antigen.

The target of assay [11] is T11, recombinant human IL-17C (R&D Systems Cat#1234IL/CF) (human, UniProt Q9P0M4 19-197).
T11 construct: also called huIL-17C; hu IL-17C
T11 sequence (looked up): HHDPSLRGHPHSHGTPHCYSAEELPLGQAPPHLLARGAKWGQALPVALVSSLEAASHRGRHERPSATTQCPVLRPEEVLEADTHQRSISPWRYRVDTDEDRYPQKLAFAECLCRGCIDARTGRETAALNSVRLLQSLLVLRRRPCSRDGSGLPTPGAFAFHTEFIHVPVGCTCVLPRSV
The experiment in a line: ELISA, coated antigen.

The target of assay [12] is T12, recombinant mouse IL-17F (SEQ ID NO: 84) (mouse, UniProt Q7TNI7 29-161).
T12 construct: also called mIL-17F; rmIL-17F
T12 sequence: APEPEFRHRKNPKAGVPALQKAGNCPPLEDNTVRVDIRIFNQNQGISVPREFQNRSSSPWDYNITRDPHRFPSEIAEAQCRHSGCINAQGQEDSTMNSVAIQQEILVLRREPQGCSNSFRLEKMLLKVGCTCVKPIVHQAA
The experiment in a line: ELISA, coated antigen.

In assay [13] the target is T13, recombinant human IL-17B (R&D Systems) (human, UniProt Q9UHF5 21-180).
T13 construct: also called huIL-17B; hu IL-17B
T13 sequence (looked up): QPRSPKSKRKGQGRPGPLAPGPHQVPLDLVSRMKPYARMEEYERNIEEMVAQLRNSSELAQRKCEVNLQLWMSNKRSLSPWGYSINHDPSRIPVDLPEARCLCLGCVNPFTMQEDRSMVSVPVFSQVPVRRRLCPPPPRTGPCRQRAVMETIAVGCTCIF
The experiment in a line: ELISA, coated antigen.

Residue numbers refer to the chain shown, from its start. In names and notes the source's numbering stands.

The term IC50 denotes the concentration at which inhibition is half-maximal.

B1: XAB4 (antibody, human IgG1, kappa, V domains shown)
VH: EVQLVESGGDLVQPGGSLRLSCAASGFTFSSYWMSWVRQAPGKGLEWVANIKQDGSEKYYVDSVKGRFTISRDNAKNSLYLQMNSLRAEDTAVYYCARDRGSLYYWGQGTLVTVSS
VL: AIQLTQSPSSLSASVGDRVTITCRPSQGINWELAWYQQKPGKAPKLLIYDASSLEQGVPSRFSGSGSGTDFTLTISSLQPEDFATYYCQQFNSYPLTFGGGTKVEIKR
notes: also called MB435 N56Q
Molecule B1 displayed an IC50 in [1] of 0.321 nM. The binding result in assay [2], in [3], in [4], in assay [5], in assay [6] and in [7] was “no binding (tested: 10 µg/ml)” throughout. In addition, the binding result in assay [8] is reported as “no binding (tested: 10 µg/ml)”; in [9], “no binding (tested: 1 µg/ml)”; in [10], “no binding (tested: 1 µg/ml)”; in assay [11], “no binding (tested: 1 µg/ml)”; in assay [12] it was “no binding (tested: 1 µg/ml)”; in [13], “no binding (tested: 1 µg/ml)”.

B2: XAB1 (antibody, human IgG1, kappa, V domains shown)
VH: B1 VH
VL: B1 VL with N30I, W31S, E32A, Q56N
notes: human IgG1/kappa monoclonal antibody; also called parental XAB1; XAB1 IgG
In assay [1], B2 yielded an IC50 of 0.83 nM. Also, the binding result in assay [2], in assay [3], in [4], in assay [5], in assay [6] and in assay [7] was “no binding (tested: 10 µg/ml)” throughout. Further, the binding result in [8] was “no binding (tested: 10 µg/ml)”; in assay [9], “no binding (tested: 1 µg/ml)”; in assay [10], “no binding (tested: 1 µg/ml)”; in assay [11] it was “no binding (tested: 1 µg/ml)”; in [12], “no binding (tested: 1 µg/ml)”; in assay [13] it was “no binding (tested: 1 µg/ml)”.
